This is an account of results in US20100047228.

The subject of this data set is delta-plasminogen.

delta-plasminogen, sequence (chain, as listed by the source mutant): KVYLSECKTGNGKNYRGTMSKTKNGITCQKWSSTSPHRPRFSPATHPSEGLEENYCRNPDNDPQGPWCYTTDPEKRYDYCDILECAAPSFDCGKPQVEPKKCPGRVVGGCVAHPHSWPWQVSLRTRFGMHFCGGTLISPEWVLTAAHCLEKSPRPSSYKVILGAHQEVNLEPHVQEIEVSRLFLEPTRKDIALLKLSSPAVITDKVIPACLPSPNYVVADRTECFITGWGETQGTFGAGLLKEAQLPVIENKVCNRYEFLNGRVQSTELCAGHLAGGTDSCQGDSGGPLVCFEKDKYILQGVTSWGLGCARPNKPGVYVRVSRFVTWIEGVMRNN

Regarding urokinase, the “conversion of one-chain delta-plasminogen into two-chain delta-plasmin (reduced SDS-PAGE)” value is “delta-plasminogen indeed can be activated by all three plasminogen activators”.
